Experimental data taken from publication PMC5123071, “The Apaf-1 apoptosome induces formation of caspase-9 homo- and heterodimers with distinct activities” (Nature Communications, 2016).
Numbering of substitutions follows the chain as printed.

T1: recombinant full-length Apaf-1XL (UniProt O14727-1 1-1248)
T1 construct: Oligomerised into the apoptosome with bovine cytochrome c (Sigma) and dATP/MgCl2; also called oligomerized Apaf-1; Apaf-1 apoptosome; source: Hi-five or Sf21 cells, baculovirus, purified
T1 sequence (looked up): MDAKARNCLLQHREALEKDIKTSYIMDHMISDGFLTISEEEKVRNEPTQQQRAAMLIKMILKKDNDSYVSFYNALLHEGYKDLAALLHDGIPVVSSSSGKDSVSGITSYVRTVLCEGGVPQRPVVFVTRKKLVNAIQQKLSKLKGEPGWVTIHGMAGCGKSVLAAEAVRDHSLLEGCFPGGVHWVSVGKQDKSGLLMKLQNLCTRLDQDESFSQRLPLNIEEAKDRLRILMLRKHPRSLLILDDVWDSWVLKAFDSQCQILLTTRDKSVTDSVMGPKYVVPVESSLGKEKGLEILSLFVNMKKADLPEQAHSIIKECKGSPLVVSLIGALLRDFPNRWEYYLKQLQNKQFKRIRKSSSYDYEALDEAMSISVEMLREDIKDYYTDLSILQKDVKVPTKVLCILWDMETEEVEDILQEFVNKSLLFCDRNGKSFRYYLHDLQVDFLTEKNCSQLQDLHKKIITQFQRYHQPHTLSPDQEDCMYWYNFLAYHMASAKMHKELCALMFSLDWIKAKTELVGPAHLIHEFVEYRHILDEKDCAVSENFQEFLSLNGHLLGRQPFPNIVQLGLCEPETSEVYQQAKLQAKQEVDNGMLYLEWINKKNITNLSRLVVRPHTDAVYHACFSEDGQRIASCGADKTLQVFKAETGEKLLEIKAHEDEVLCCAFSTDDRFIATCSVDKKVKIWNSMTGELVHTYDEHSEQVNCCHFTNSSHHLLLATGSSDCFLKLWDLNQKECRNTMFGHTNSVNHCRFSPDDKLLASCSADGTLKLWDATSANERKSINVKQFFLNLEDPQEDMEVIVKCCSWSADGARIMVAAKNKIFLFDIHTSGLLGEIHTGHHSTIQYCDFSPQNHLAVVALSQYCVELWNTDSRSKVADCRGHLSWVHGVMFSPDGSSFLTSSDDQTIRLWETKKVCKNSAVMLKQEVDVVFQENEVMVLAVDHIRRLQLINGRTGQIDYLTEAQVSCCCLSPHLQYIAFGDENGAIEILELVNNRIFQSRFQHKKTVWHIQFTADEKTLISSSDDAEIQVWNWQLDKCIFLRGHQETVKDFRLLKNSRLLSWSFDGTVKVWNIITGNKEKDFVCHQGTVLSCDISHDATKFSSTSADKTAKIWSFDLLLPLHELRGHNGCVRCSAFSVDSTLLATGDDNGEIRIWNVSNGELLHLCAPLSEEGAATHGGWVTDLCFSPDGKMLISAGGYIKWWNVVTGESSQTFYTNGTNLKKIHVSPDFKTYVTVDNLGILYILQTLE

T2: processed two-chain caspase-9 C9-p35/p12 (UniProt P55211 1-315; P55211 316-416)
T2 construct: caspase-9, p35 (prodomain and large subunit), ends at Asp-315 (PEPD315); caspase-9, p12 small subunit with the intersubunit linker, begins after Asp-315; Purified on Ni2+-NTA; also called processed C9; cleaved C9; source: E. coli BL21(DE3)pLysS, wild-type ProC9 overexpressed and autocleaved at Asp-315, purified (Ni2+-NTA, Mono-Q)
T2 sequence (looked up) 1: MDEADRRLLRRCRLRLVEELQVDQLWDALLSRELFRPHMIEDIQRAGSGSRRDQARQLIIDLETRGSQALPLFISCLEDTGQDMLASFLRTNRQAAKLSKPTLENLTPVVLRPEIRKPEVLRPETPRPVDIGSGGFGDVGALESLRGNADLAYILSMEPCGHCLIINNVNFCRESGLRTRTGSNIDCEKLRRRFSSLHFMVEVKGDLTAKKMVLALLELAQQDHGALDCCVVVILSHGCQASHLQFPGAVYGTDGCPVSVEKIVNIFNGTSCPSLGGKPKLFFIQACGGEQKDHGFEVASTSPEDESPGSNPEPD
T2 sequence (looked up) 2: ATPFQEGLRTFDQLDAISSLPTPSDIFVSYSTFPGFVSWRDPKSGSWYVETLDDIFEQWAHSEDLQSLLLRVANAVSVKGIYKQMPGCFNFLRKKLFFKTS

B1: C9 prodomain (domain or fragment)
chain: MDEADRRLLRRCRLRLVEELQVDQLWDALLSRELFRPHMIEDIQRAGSGSRRDQARQLIIDLETRGSQALPLFISCLEDTGQDMLASFLRTNRQAAKLSKPTLENLTPVVLRPEIRKPEVLRPETPRPVDIGSGGFG
B2: Apaf-1 NOD protein (127-530) (domain or fragment, UniProt O14727 127-530, looked up)
chain: VTRKKLVNAIQQKLSKLKGEPGWVTIHGMAGCGKSVLAAEAVRDHSLLEGCFPGGVHWVSVGKQDKSGLLMKLQNLCTRLDQDESFSQRLPLNIEEAKDRLRILMLRKHPRSLLILDDVWDSWVLKAFDSQCQILLTTRDKSVTDSVMGPKYVVPVESSLGKEKGLEILSLFVNMKKADLPEQAHSIIKECKGSPLVVSLIGALLRDFPNRWEYYLKQLQNKQFKRIRKSSSYDYEALDEAMSISVEMLREDIKDYYTDLSILQKDVKVPTKVLCILWDMETEEVEDILQEFVNKSLLFCDRNGKSFRYYLHDLQVDFLTEKNCSQLQDLHKKIITQFQRYHQPHTLSPDQEDCMYWYNFLAYHMASAKMHKELCALMFSLDWIKAKTELVGPAHLIHEFVEYR
notes: aa 127–530); Oligomerised with dATP/MgCl2; also called T7-NOD; NOD apoptosome complexes; source: E. coli BL21(DE3)pLysS, purified (Ni2+-NTA, Mono-Q; MBP removed with TEV protease, negative selection on Ni2+-NTA beads; not shown: MBP, N-terminal, cleaved; His6, internal (between MBP and NOD), cleaved
B3: C9-p35/p12-CIVSM (enzyme)
chain 1: T2 sequence (looked up) 1
chain 2: T2 sequence (looked up) 2 with G87C, C88I, F89V, N90S, F91M
notes: caspase-9, p35 (prodomain and large subunit), ends at Asp-315; caspase-9, p12 small subunit, GCFNF dimer motif replaced by the caspase-3 motif CIVSM; Homodimer by SEC-MALS; also called GCFNF→CIVSM; source: E. coli BL21(DE3)pLysS, ProC9-CIVSM fully processed during expression, purified (Ni2+-NTA, Mono-Q); copies: 2 + 2
B4: biotinylated Apaf-1 CARD-LZ-Avi (domain or fragment)
chain: not shown
modifications: biotin on the AviTag (BirA)
notes: Apaf-1 CARD (1-137); GCN4 leucine zipper, C-terminal to the CARD, followed by the AviTag and the His6-tag; Cloned into pRSF-Duet1; also called Apaf-1 CARDs; source: E. coli BL21(DE3)pLysS, purified (Ni2+-NTA, Mono-Q), biotinylated with BirA, avidin column

What was measured:
[1] = target: B4; assay: SPR; biotinylated Apaf-1 CARD-LZ-Avi immobilised on an SA chip; C9 proteins 125 nM-2 μM as analytes; 0.01 M HEPES, 0.15 M NaCl, 3 mM EDTA, 0.05% P20; room temperature; affinities by equilibrium analysis, kinetics fitted to a two-state model; settings: both partners purified
[2] = target: the molecule itself; assay: SEC; Apaf-1 NOD (1.5 μM) and ΔPro-C9-TM (80 nM) with dATP/MgCl2 (2 mM each), 30 min 37 °C; Superose-6 in 20 mM HEPES, 50 mM NaCl, 10 mM DTT, pH 8.0; fractions immunoblotted with anti-T7
[3] = target: the molecule itself; assay: SEC-MALS; recombinant C9 proteins 200 μl at 40 μM; 20 mM HEPES, 50 mM NaCl, pH 8.0; 0.5 ml/min
[4] = target: T1, recombinant full-length Apaf-1XL; assay: SEC; Apaf-1 (300 nM) with C9 protein (200 nM) and Cc/dATP, 30 min 37 °C; Superose-6 gel filtration, pooled fractions precipitated and immunoblotted for Apaf-1 and C9; settings: both partners purified
C9-p35/p12-CIVSM = target: B3; assay: SPR; biotinylated Apaf-1 CARD-LZ-Avi immobilised on an SA chip; C9 proteins 125 nM-2 μM as analytes; 0.01 M HEPES, 0.15 M NaCl, 3 mM EDTA, 0.05% P20; room temperature; affinities by equilibrium analysis, kinetics fitted to a two-state model; settings: both partners purified
[5] = target: T2, processed two-chain caspase-9 C9-p35/p12; assay: as above; settings: both partners purified

Binder: B1
Kd [1]: 41.8 µM

Binder: B2
binding result [2]: binds

Binder: B3
stoichiometry N [3]: 2
binding result [4]: binds

Binder: B4
Kd (C9-p35/p12-CIVSM): 68 nM
Kd [5]: 388 nM
